Positions count from the first letter of the chain named.
T1: Human CD27 ECD truncated (ECD 1-121, cleavage site, His6) (human)
T1 construct: also called human CD27 ECD with His Tag; CD27-His
T1 chain: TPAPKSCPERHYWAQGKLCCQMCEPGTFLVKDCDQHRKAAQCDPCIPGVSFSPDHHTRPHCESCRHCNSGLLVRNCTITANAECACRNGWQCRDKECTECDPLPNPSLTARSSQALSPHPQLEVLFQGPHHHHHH

B1: M91 (antibody, human IgG1, V domains shown)
VH: QVQLVESGGGLVKPGGSLRLSCAASGFTFSSYTMSWIRQAPGKGLEWVSYISSGGGNTYYPDSVKGRFTISRDNAKNSLYLQMNSLRAEDTAVYYCARHRGNPFDYWGQGTLVTVSS
VL: DIQMTQSPSSLSASVGDRVTITCRASKSVSTSGYSFMHWYQQKPGKAPKLLIYLASNLESGVPSRFSGSGSGTDFTFTISSLQPEDIATYYCQHSRELPWTFGQGTKVEIK
notes: also called H31/L42; C2191 HFR variant
B2: M69 (antibody, human IgG1, V domains shown)
VH: EVQLVQSGAEVKKPGESLKISCKGSGYAFSSSWMNWVRQMPGKGLEWMGRIYPGDGDTNYSPSFQGQVTISADKSISTAYLQWSSLKASDTAMYYCARSDYYGDYGFAYWGQGTLVTVSS
VL: DIVMTQSPDSLAVSLGERATINCKASQSVDYAGDSYMNWYQQKPGQPPKLLIYAASNLESGVPDRFSGSGSGTDFTLTISSLQAEDVAVYYCQQSNEDPYTFGQGTKLEIK
notes: also called H28/L35; C2177 HFR variant
B3: M41 (antibody, human IgG1, V domains shown)
VH: EVKLVESGGGLVKPGGSLKLSCAASGFTFSSYTMSWVRQTPEKRLEWVAYISSGGGNTYYPDSVKGRFTISRDNARNTLYLQMSSLRSEDTAMYYCSRHRGNPFDYWGQGTTLTVSS
VL: DIVLTQSPASLAVSLGQRATISCRASKSVSTSGYSFMHWYQQKPGQPPKLLIYLASNLESGVPARFSGSGSGTDFTLNIHPVEEEDAATYYCQHSRELPWTFGGGTKLEIK
notes: chimeric; also called C2191 parent; C2191 parent chimera
B4: M40 (antibody, human IgG1, V domains shown)
VH: QVQLQQSGPELVKPGASVKISCKASGYAFSSSWMNWVKQRPGKGLEWIGRIYPGDGDTNYNGKFKGKATLTADKSSSTAYMQLSSLTSEDSAVYFCARSDYYGDYGFAYWGQGTLVTVSA
VL: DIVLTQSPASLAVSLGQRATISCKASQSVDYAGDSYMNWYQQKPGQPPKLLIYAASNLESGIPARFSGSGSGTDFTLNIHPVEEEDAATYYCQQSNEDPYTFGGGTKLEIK
notes: chimeric; also called C2177 parent; C2177 parent chimera
B5: M709 (antibody, V domains shown)
VH: B2 VH with P53A, G56A, N59A
VL: B2 VL with D34E, Y36F
notes: also called single-gene DNA ID 709
B6: M710 (antibody, V domains shown)
VH: B2 VH with P53A, G56A, S61A
VL: B2 VL with D34E, Y36F
notes: also called single-gene DNA ID 710
B7: M711 (antibody, V domains shown)
VH: B2 VH with P53S, G56A, S61N, P62Q, S63K, Q65K
VL: DIQMTQSPSSLSASVGDRVTITCKASQSVDYAGESFMNWYQQKPGKAPKLLIYAASNLESGVPSRFSGSGSGTDFTLTISSLQPEDFATYYCQQSNEDPYTFGQGTKVEIK
notes: also called single-gene DNA ID 711
B8: M713 (antibody, V domains shown)
VH: QVQLVQSGAEVKKPGASVKVSCKASGYAFSSSWMNWVRQAPGQGLEWMGRIYSGDADTNYAQKFKGRVTMTRDTSTSTVYMELSSLRSEDTAVYYCARSDYYGDYGFAYWGQGTLVTVSS
VL: B7 VL
notes: also called single-gene DNA ID 713
B9: M160 (antibody, human IgG4, V domains shown)
VH: B8 VH with A56G, A61N, Q62G
VL: B7 VL with E34D
notes: also called H196,L219
B10: M166 (antibody, human IgG4, V domains shown)
VH: B8 VH with A56G, A61N, Q62G
VL: B7 VL with G33H
notes: also called H196,L217
B11: M155 (antibody, human IgG4, V domains shown)
VH: B8 VH with S53P, A56G, A61N, Q62G
VL: B7 VL with G33H
notes: also called H25,L217
B12: M157 (antibody, human IgG4, V domains shown)
VH: B8 VH with S53Q, A56G, A61N, Q62G
VL: B7 VL with E34D, F36Y
notes: also called H197,L220
B13: M149 (antibody, human IgG4, V domains shown)
VH: B8 VH with S53P, A56G, A61N, Q62G
VL: B7 VL with E34D
notes: also called H25,L219
B14: M158 (antibody, human IgG4, V domains shown)
VH: B8 VH with A56G, A61N, Q62G
VL: B7 VL with E34D, F36Y
notes: also called H196,L220
B15: M596 (antibody, V domains shown)
VH: B2 VH with P53A
VL: B2 VL with Y36W, A54T, Q83L
notes: IgG; subclass not restated (path 1 mAbs were human IgG1/kappa); also called H239/L257
B16: M678 (antibody, V domains shown)
VH: B2 VH with P53A, N59A
VL: B2 VL with Y36F
notes: IgG; subclass not restated; also called H259/L255
B17: M680 (antibody, V domains shown)
VH: B2 VH with P53A, S61A
VL: B2 VL with Y36F
notes: IgG; subclass not restated; also called H260/L255
B18: M706 (antibody, V domains shown)
VH: B2 VH with P53A, G56A, S61A
VL: B2 VL with D34E, Y36F
notes: IgG; subclass not restated; also called H272/L267
B19: M600 (antibody, V domains shown)
VH: B2 VH with P53A
VL: B2 VL with Y36F
notes: IgG; subclass not restated; also called H239/L255
B20: M703 (antibody, V domains shown)
VH: B2 VH with P53A, G56A, N59A
VL: B2 VL with D34E, Y36F
notes: IgG; subclass not restated; also called H270/L267

The binders below were run against T2, Human CD27, full length on the cell surface (human, UniProt P26842 21-260) (assay: cell-based or functional assay).

NFkB IC50	Binder
0.28 nM	B1
0.11 nM	B2
0.3 nM	B3
0.14 nM	B4

Target: T2, Human CD27, full length on the cell …
Assay: cell-based or functional assay
Remark: another data set of the same source
Target sequence in this assay (P26842 21-260 H233R): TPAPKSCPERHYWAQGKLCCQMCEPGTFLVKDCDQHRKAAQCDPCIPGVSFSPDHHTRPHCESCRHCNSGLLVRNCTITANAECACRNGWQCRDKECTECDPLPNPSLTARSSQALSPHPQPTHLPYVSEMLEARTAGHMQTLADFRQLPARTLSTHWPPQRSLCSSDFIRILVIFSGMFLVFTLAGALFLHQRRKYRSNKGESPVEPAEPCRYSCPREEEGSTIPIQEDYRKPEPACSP

NFkB IC50	Binder
0.045 nM	B3

Target: T2, Human CD27, full length on the cell …
Assay: cell-based or functional assay
Remark: another data set of the same source
Target sequence in this assay (P26842 21-260 H233R): as above

NF-kB Assay IC50	Binder
2.3 nM	B3

Target: T2, Human CD27, full length on the cell …
Assay: cell-based or functional assay
Remark: another data set of the same source

NF-kB Assay IC50	Binder
0.272 nM	B5
0.32 nM	B6
0.258 nM	B7
0.296 nM	B8
0.466 nM	B4

Each binder was assayed against T3, Human CD27 ECD, monomeric soluble (construct limits not stated) (human, UniProt P26842 20-191) (assay: Biacore SPR, purified mAb).
T3 construct: extracellular domain; target of the Biacore assays; also called monomeric soluble CD27; CD27-His
T3 sequence (P26842 20-191): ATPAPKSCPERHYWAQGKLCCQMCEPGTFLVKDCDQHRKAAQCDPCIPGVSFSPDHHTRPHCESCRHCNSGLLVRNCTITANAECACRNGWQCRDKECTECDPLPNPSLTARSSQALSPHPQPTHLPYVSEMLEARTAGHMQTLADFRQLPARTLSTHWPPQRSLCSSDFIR

Kd	koff	kon	Binder
23.7 nM	0.0103 s⁻¹	435000 M⁻¹ s⁻¹	B3

Target: T3, Human CD27 ECD, monomeric soluble …
Assay: Biacore SPR, purified mAb
Remark: another data set of the same source

Kd	koff	kon	Binder
0.026 nM	5.89e-05 s⁻¹	2.3e+06 M⁻¹ s⁻¹	B5
0.019 nM	4.88e-05 s⁻¹	2.55e+06 M⁻¹ s⁻¹	B6
0.03 nM	5.82e-05 s⁻¹	1.97e+06 M⁻¹ s⁻¹	B7
0.056 nM	1.16e-05 s⁻¹	206000 M⁻¹ s⁻¹	B8
1.24 nM	0.00132 s⁻¹	1.06e+06 M⁻¹ s⁻¹	B4

Target: T1, Human CD27 ECD truncated (ECD 1-121, …)
Assay: ProteOn SPR, culture supernatants

fold decrease in KD against the parental mAb M159	Binder
20 fold	B9
20 fold	B10
6 fold	B11
6 fold	B12
4 fold	B13
6 fold	B14

Target: T1, Human CD27 ECD truncated (ECD 1-121, …)
Assay: ProteOn SPR, culture supernatants
Remark: another data set of the same source

Kd	Binder
0.025 nM	B15
0.053 nM	B16
0.03 nM	B17
0.013 nM	B18
0.049 nM	B19
0.028 nM	B20

Target: T1, Human CD27 ECD truncated (ECD 1-121, …)
Assay: ProteOn SPR, culture supernatants
Remark: another data set of the same source

Kd	Binder
0.12 nM	B9
0.1 nM	B10
0.37 nM	B11
0.39 nM	B12
0.54 nM	B13
0.36 nM	B14

Each binder was assayed against T3, Human CD27 ECD, monomeric soluble … (assay: Biacore SPR, purified mAb, CD27-His).

Kd	koff	kon	Binder
0.117 nM	0.00018 s⁻¹	1.6e+06 M⁻¹ s⁻¹	B9
0.126 nM	0.000203 s⁻¹	1.62e+06 M⁻¹ s⁻¹	B10
0.439 nM	0.00066 s⁻¹	1.5e+06 M⁻¹ s⁻¹	B14

Target: T1, Human CD27 ECD truncated (ECD 1-121, …)
Assay: ProteOn SPR, purified mAb, CD27-His
Experimental: Purified mAbs were analyzed for affinity to CD27-His on ProteOn.

Kd	koff	kon	Binder
0.108 nM	0.000223 s⁻¹	2.07e+06 M⁻¹ s⁻¹	B9
0.127 nM	0.000234 s⁻¹	1.84e+06 M⁻¹ s⁻¹	B10

Each binder was assayed against T3, Human CD27 ECD, monomeric soluble … (assay: Biacore SPR, purified mAb, CD27 ECD).
Experimental: The eight variant mAbs and the HFR parent were evaluated for their affinity to CD27 ECD by BIAcore and their IC₅₀ in the κβ-reporter assay. Kinetic constants and affinity were measured by BIAcore.

Kd	Binder
13.7 nM	B3

Target: T1, Human CD27 ECD truncated (ECD 1-121, …)
Assay: ProteOn SPR; mAb captured via anti-human Fc; CD27 ECD as analyte
Experimental: The rates of CD27 association and dissociation were measured for each variant. The biosensor surface was prepared by covalently coupling Goat anti-Human IgG (Fc) antibodies to the surface of a GLC chip (BioRad) using the manufacturer instructions for amine-coupling chemistry. Approximately 5,000 RU (response units) of antibody were immobilized. The kinetic experiments were performed at 25° C. in running buffer (PBS, 0.01% P20, 0.01% BSA). 1:3 serial dilutions of human CD27 ECD from, starting at 300 nM were prepared in running buffer. About 350 RU of mAb were captured on each channel of the sensor chip. An isotype-matched antibody control was immobilized in channel 6 and used as a reference surface. Capture of mAb was followed by three minutes injection (association phase) of antigen at 30 uL/min, followed by 10 minutes of buffer flow (dissociation phase). […] Data was processed on the instrument software. Double reference subtraction of the data was performed by subtracting the curves generated by buffer injection from the reference-subtracted curves for analyte injections. Kinetic analysis of the data was performed using 1:1 Langmuir binding model with global fit. The result for each mAb was reported in the format of Kₐ (On-rate), Kd (Off-rate), KD (Equilibrium dissociation constant), and percent activity.

Kd	Binder
7.9 nM	B1
0.77 nM	B2
10.3 nM	B3
0.96 nM	B4

Target: T1, Human CD27 ECD truncated (ECD 1-121, …)
Assay: ELISA of culture supernatants; binding to CD27 ECD; signal relative to the parent

ELISA signal	Binder
1.09	B1
1.09	B2
1	B3
1	B4
